Test results taken from patent publication US20180074079A1.
Blank lines part the entries; values can stand above or below the substance they belong to.

What was measured:
[1] = molecular target: rHDL bearing apoA-IW19:A136 (human) (UniProt P02647); experiment: FRET (Trp19 to AEDANS136) exchange assay, rHDL to lipid-free protein 1:5 molar, 37 C
[2] = molecular target: rHDL bearing apoA-IW19:A136 (human) (UniProt P02647); experiment: FRET exchange assay, rHDL to lipid-free protein 1:5 molar, 37 C
[3] = molecular target: rHDL bearing apoA-IW19:A136 (human) (UniProt P02647); experiment: FRET exchange assay, biphasic fit
[4] = molecular target: HDL in human plasma (human); experiment: EPR, center peak amplitude over time, 0.3 mg/ml probe in plasma of patient M1
[5] = molecular target: HDL in human plasma (human); experiment: EPR, center peak amplitude over time, 0.3 mg/ml probe in plasma of patient N1
[6] = molecular target: HDL in human plasma (human); experiment: EPR, frozen and thawed plasma
[7] = molecular target: HDL in human plasma (human); experiment: EPR, frozen and thawed plasma with higher TG concentration
[8] = molecular target: HDL in human plasma (human); experiment: EPR, increasing probe concentration in patient plasma
[9] = molecular target: HDL in human plasma (human); experiment: EPR, frozen and thawed plasma with higher TG concentration, third freeze-thaw
[10] = molecular target: HDL in human plasma (human); experiment: EPR, center peak amplitude over time, 0.3 mg/ml probe in plasma of patient D1
[11] = molecular target: 9.6 nm POPC rHDL generated with Alexa 350 labeled apoA-I (human) (UniProt P02647); experiment: displacement/exchange, rHDL apoA-I to lipid-free apoA-I 1:5 molar, 37 C, NDGGE fluorescence
9.6 nm POPC rHDL generated with Alexa 350 labeled apoA-I (human), sequence (P02647 25-267): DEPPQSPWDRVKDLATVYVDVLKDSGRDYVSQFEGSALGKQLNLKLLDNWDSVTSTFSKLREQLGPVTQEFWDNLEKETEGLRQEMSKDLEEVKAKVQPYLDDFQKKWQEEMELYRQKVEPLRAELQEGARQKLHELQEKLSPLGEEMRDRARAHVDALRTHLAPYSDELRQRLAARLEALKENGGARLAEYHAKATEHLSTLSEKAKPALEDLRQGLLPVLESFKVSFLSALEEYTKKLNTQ

rHDL bearing apoA-IW19:A136 (human), sequence (P02647 other isoform, or with tags, fused parts or gaps): as the sequence (P02647 25-267) above, with W8F, V19W, W50F, W72F, W108F, E136C counted along it

Substance: Trp Null apoA-I (four endogenous tryptophans substituted for phenylalanine) (from UniProt P02647 25-267)
exponential relaxation time (time to 50% maximal exchange, τ) [1]: 0.94 h

Substance: Trp Null apoA-I oxidized by peroxynitrite (from UniProt P02647 25-267)
exponential relaxation time of exchange (t) [2]: 0.67 h

More lines, now with the values ahead:

exchange impaired population [3]: 57.3%
unaffected population [3]: 42.7%
exponential relaxation time of exchange (t1) [2]: 0.92 h
exponential relaxation time of exchange (t2) [2]: 18.8 h
Substance: Trp Null apoA-I oxidized by the MPO-H2O2-nitrite system (from UniProt P02647 25-267)

time to maximal binding (patient M1) [4]: 8 min
time to binding (patient N1) [5]: < 5 min
reduction of rate and degree of binding after a freeze-thaw cycle [6]: 10%
reduction of rate and degree of binding after the third freeze-thaw [6]: 20%
decrease in EPR observable binding after freeze-thaw, plasma with higher TG [7]: 15%
saturating concentration [8]: 1.9 mg/mL
decrease in EPR observable binding after freeze-thaw, plasma with higher TG [9]: 25%
time to maximal binding (patient D1) [10]: 10 min
Substance: apoA-ISL217 (apoA-I bearing a G217C mutation, cysteine derivatized with a thiosulfonate linked nitroxide spin label) (from UniProt P02647 25-267)

release of Alexa350 labeled apoA-I from rHDL into the lipid-free pool [11]: > 90%
Substance: unlabeled lipid-free apoA-I (from UniProt P02647 25-267)
